Target: SHANK3, Q9BYB0-1
Sequence (Q9BYB0 whole entry): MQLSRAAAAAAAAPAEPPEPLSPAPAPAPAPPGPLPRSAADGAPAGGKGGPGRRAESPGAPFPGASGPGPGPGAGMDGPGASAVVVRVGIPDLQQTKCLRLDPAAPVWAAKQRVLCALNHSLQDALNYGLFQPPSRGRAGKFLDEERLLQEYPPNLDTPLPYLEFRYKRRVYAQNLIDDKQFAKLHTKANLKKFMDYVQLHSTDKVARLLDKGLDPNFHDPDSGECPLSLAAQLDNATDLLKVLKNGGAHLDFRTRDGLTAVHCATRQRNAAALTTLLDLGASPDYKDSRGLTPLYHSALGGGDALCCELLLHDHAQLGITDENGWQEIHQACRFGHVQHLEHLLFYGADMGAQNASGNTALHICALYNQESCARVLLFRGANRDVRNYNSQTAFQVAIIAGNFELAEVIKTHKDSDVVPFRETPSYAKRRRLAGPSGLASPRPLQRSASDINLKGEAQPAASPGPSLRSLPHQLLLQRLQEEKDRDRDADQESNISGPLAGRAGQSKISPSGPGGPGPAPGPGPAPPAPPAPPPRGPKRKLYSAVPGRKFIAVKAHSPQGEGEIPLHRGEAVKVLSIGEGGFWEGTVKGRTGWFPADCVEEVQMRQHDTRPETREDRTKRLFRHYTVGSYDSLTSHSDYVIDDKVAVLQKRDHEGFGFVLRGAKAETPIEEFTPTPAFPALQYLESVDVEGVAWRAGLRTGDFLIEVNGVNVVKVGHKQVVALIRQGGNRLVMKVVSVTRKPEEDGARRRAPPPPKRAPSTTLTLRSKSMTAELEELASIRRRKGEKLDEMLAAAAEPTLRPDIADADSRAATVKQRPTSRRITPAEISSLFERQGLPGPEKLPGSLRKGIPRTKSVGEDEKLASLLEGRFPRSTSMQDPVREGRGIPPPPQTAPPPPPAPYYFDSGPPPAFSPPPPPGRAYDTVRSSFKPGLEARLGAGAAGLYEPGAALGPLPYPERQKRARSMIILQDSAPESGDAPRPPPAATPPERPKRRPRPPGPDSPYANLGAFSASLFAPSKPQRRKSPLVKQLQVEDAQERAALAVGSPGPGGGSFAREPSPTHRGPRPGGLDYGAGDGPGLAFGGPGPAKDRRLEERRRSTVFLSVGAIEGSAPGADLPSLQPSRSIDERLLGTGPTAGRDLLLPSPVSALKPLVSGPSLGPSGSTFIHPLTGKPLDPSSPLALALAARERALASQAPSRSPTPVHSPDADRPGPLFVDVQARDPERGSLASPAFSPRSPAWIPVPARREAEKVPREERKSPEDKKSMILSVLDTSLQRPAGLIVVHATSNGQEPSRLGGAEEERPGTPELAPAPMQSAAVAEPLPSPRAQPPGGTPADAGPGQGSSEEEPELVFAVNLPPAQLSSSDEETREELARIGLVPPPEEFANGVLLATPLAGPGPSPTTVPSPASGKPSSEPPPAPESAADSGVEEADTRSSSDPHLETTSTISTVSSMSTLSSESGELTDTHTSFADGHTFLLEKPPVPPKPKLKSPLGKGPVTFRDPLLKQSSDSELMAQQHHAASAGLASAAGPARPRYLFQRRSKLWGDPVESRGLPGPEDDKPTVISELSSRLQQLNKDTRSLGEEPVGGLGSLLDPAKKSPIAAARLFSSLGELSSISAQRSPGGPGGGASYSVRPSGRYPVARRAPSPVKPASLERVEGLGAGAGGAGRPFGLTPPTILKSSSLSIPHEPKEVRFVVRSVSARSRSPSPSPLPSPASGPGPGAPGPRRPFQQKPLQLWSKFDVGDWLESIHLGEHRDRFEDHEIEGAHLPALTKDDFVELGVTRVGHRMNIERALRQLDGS

effect of a mutation on the interaction: disrupting interaction strength
Substance: Voltage-dependent L-type calcium channel subunit alpha-1D (Homo sapiens), Q01668 R1908G

Reference: IntAct's records for PubMed 30058071
